According to PMC6677536 (2019):

Molecular target: Full-length Panx, HA-tagged (UniProt Q9W2H9)
Test: FLAG-tag co-immunoprecipitation, western blot quantification
Details: lysates of transfected S2 cells; parent: est. 0; read off a plot

Full-length Panx, HA-tagged, sequence (Q9W2H9 whole entry): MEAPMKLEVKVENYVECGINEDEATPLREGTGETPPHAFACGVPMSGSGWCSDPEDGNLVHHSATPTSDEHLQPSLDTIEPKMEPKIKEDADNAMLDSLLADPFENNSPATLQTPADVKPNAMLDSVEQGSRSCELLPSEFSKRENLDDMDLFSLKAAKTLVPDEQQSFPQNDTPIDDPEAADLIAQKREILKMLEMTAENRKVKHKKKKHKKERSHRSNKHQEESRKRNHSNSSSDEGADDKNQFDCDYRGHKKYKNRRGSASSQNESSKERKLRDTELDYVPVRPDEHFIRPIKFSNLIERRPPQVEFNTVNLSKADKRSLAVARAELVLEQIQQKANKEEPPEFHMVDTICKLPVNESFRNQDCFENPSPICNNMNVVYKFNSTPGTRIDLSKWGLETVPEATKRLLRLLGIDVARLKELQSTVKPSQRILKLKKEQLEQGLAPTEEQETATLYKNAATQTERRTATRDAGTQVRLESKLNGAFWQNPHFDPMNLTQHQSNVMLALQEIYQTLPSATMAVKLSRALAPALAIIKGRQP
Full-length Nxf2, 3xFLAG-tagged (from UniProt Q9VV73) aa811-814 (UBA mut.1), sequence (Q9VV73 whole entry, change not shown, the tested form may be a part): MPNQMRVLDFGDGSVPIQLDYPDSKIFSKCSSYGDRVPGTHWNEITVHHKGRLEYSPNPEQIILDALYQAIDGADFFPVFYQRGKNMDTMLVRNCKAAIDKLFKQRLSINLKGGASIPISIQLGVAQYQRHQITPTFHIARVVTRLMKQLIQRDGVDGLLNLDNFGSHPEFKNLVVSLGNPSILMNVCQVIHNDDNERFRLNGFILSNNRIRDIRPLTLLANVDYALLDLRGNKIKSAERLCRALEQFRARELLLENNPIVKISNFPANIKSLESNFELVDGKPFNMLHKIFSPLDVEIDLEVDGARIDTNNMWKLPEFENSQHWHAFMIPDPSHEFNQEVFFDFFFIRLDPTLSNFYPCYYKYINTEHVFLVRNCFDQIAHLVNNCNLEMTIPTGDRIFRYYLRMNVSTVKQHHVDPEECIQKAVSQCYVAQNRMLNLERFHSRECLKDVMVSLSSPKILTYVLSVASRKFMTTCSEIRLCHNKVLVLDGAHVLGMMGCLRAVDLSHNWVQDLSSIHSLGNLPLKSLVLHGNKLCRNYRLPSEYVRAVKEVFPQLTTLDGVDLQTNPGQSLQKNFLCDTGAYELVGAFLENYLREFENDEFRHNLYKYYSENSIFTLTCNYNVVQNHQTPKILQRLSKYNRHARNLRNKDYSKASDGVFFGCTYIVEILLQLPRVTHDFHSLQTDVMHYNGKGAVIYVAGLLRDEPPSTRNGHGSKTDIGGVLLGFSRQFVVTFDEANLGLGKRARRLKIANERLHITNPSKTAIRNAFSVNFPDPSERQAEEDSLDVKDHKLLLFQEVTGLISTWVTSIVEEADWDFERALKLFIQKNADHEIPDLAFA
Full-length Nxf2, 3xFLAG-tagged (from UniProt Q9VV73) aa754-756 (NTF2 mut.2), sequence (Q9VV73 whole entry, change not shown, the tested form may be a part): as above
Full-length Nxf2, 3xFLAG-tagged (from UniProt Q9VV73) aa755-758 (NTF2 mut.3), sequence (Q9VV73 whole entry, change not shown, the tested form may be a part): as above
Full-length Nxf2, 3xFLAG-tagged (from UniProt Q9VV73) aa751-754 (NTF2 mut.1), sequence (Q9VV73 whole entry, change not shown, the tested form may be a part): as above
Full-length Nxf2, 3xFLAG-tagged (from UniProt Q9VV73) aa835-836 (UBA mut.2), sequence (Q9VV73 whole entry, change not shown, the tested form may be a part): as above

Substance	log10 ratio (log10 coIP index [arbitrary unit])
Full-length Nxf2, 3xFLAG-tagged (from UniProt Q9VV73) aa751-754 (NTF2 mut.1)	-0.55
Full-length Nxf2, 3xFLAG-tagged (from UniProt Q9VV73) aa835-836 (UBA mut.2)	-0.5
Full-length Nxf2, 3xFLAG-tagged (from UniProt Q9VV73) aa754-756 (NTF2 mut.2)	-0.32

Further lines, results first:

log10 ratio (log10 coIP index [arbitrary unit])	Substance
-0.3	Full-length Nxf2, 3xFLAG-tagged (from UniProt Q9VV73) aa755-758 (NTF2 mut.3)
-1.3	Full-length Nxf2, 3xFLAG-tagged (from UniProt Q9VV73) aa811-814 (UBA mut.1)
